# Measured values as given in the DeepSol protein solubility set.
# Experiment: soluble on expression in E. coli; label from the status in PepcDB or PDB records
row,Sequence,soluble on expression in E. coli
1,MTTSALPRQAFGEMADTVILLEKATTTPICEGMNRLLASFQALYLQYQKHHFVVEGAEFYPLHQFFQDCYEQVQDHVHALGERLNGLGGVPVAGFQQLAALCCFTPEPEGAFNCRQMLSNDLQAEQAIIGVLRQQATQAESLGDRATAYLYDQILLKTEERAYHIGHFLANDSLKVLKVKLADGREHHHHHH,soluble
2,GKENDAGDIVEKFDPTEAQSVEVQDERPETTIGRGKPTDEVVLLSEAHRPEEKMAAYEDEHGTYIMNSKDLRAVQHVERLTKMGVHSLKIEGRTKSFYYCARTAQVYRKAIDDAVAGKPFDESLMGTLESLAHRGYTEGFLRRHTHDTYQNYDYGYSVSDAQQFVGEFTGKRRGDMAEVEVKNKFVVGDSLELMTPKGNVVFTLEAMENRKSESIEDAKGNGHFVFIPVPEDMDLEYGLLMRNLNAGQDTRNPTGK,not soluble
3,MGSDKIHHHHHHMRRSSLKEPGPASAIRTENFTRGMGEVPAALGKVCRGGSHAKAHERGLIMLISQILDDAETIRVVARNGGKTRIINGARSVYSLAMEAARTGVGLATLIERKGLGETVDLDAAYKKGRLLSPINHPDPAHLHLTGTGLTHLGSAATRDSMHKKLSSADGEEQLTDSMKMFRMGLEGGKPAKGQVGVQPEWFYKGNGTMAVAPGAALLSPAFAKDAGEEPEIAGIYVIGDDGAPFRVGFTLSNEFSDHVTERVNYLFLAHSKLRNASFGPEILIGDLPSDIRGTSRIVRDGETLWEKPFLSGEANMSHTIANLEHHHFKYSAFRQPGDVHVHMFGTATLSFADGVKTEAGDVFEIEAGDFGLPLRNPLEIEKPVKVAVKAL,not soluble
4,MTRLLDATWEKELLAASARLSQAQEENFLDLVDAAEGRIDETIARVLLRTFSAKDDYGTQERVVSVLSTGADQVVIDAIVEEMPRLALEAPEWAQTLLGTEVEFRPDLTARALSQAPTICRIAAENILKNEDFQSQYPNAALVLGQLDA,not soluble
5,MEKEKKGAKHELDLSSILQFVAPGTPLRAGMENVLRANTGGLIVVGYNDKVKEVVDGGFHINTAFSPAHLYELAKMDGAIILSDSGQKILYANTQLMPDATISSSETGMRHRTAERVAKQTGCLVIAISERRNVITLYQENMKY,not soluble
6,MTETIKCIGCGVEIQTEDKNEVGYAPASSLEKEQVICQRCFRLKHYNEIQDVSLTDDDFLRILNGIGKSDALVVKIVDIFDFNGSWLPGLHRFVGNNKVLLVGNKADLIPKSVKHDKVKHWMRYSAKQLGLKPEDVFLISAAKGQGIAELADAIEYYRGGKDVYVVGCTNVGKSTFINRMIKEFSDETENVITTSHFPGTTLDLIDIPLDEESSLYDTPGIINHHQMAHYVGKQSLKLITPTKEIKPMVFQLNEEQTLFFSGLARFDYVSGGRRAFTCHFSNRLTIHRTKLEKADELYKNHAGDLLSPPTPEELENMPELVKYEFNIREPKTDVVFSGLGWVTVNEPGAKIVAHVPKGVSVSLRKSLILEHHHHHH,not soluble
7,MGSSPAPFADIGKKAKDLLNKDYIFDHKFTLTMLSATGTEFVATGLKKDDFFFGDISTLYKGQNTIVDLKIDSHSSVSTKVTLKNLLPSAKAVISFKIPDHKSGKLDVQYVHPHATLNSSIGLNPTPLLDLSATIGSQNVCLGGEVSFDTASSSLTKYNAGIGFNNQGVSAALILEDKGESLRATYVHTVNPTTSFGAELIRRFSNYNNSFTVGSSHSVDQFTVVKTRFSNSGKAGMVVQREWRPKSHITFSAEYDSKAVTSSPKLGLALALKP,soluble
8,SSQTGEKGKFPDAAGYVGFANLPNQVHRKSVKKGFEFTLMVVGESGLGKSTLINSLFLTDLYPERYIPGAAEKIERTVQIEASTVEIEERGVKLRLTVVDTPGYGDAINSQDCFKTIIQYIDNQFERYLHDESGLNRRHIVDNRVHCCFYFISPFGHGLKPLDVEFMKAIHSKVNIVPVIAKADTLTLKERDRLKRRILDEISEHGIRIYQLPDADSDEDEEFKDFVPNRCIWSSLQFYQMHIIAITFIDIMFVFKKAAHVISTTIIMVKLNIKCQ,soluble
9,MGSDKIHHHHHHMEFVFGKKVFQSEVRKASDLKPVLAFPEALKEDFDAYYMFRDSFKTDEEAEIIRNAGLRYDYTVIPPNNIGGESIKTYGHYHPEVVRGFTYPEVYQVLEGEALFILQKPSNGKIEDVIVVEGKKWDTVIIPPNYGHVTINPTESDLITANWVCRNFSSIYEPYTKRRGACYYYINGEWVRNRNYDDAPEIRFAKPKNVLDVKGDMYDLVYTIEKLEFLVKPHEHQEIFENAFEVV,not soluble
10,SLIRMIRKFKVKGLRSPSLLIDMILNDTEEGILVVETDGEEQIKDIEKLLKKYNLKYEVDGNVVKIYVGEIKADKTINVVGATCPGPIMMVSDMLSKMKNGEILEIICGKNSLTDLTEGLKGMGNEIIKVEDKGDGTYRILVKKGEKKEEKAAVTKIDELFIINTTGTGNAEKAYATFMMADVALKMNLKPTIFLMMDGASLALKGECDRVKHPAFPKLGDLVRDILSKGVKIYVCELSAEFRGINEKNLEEGFEIAGAPTFLNYLSKPNVRPVWL,soluble
11,MLLAGLTSCQQKGYTITGTVDSTLNLDGNMVYIQLSQGNNLDSTTIRNGAFTFTGEHIDTAKLAYIVTASPEHNVVPIIFILEDGKISAKIGEYAAKGTPLNEENFKYSAKINELENSFKLKMEEIQADTARAAEETQAMLEKEYTAMLGEKSKITTELYQSHTNDALGARLLQNILYGEGSDSDVIAEARKKAGPIVLAHPNIVHLLAMIDNLADTQPGKMAKNFAGTDAEGNEVELFKYVGQGNYAVVDFWASWCGPCRREIPYIAEANAKFAEKGLQVVGIVVWDKMEDHLKAKEALNVVWPQIFDAKNVATDMYGIQGIPQVILFGPDGTIIERDLRGEKLIEKLSEIYNSNKK,not soluble
12,MGLIKTIGRKPSVQWALSHLASGYLRLVRRTNRFTLEPADAYARLDAFGPFIAAMWHGQHIMISFMSRPQDRVATIISRSPDGNINTMALTRMGVRVMRASGARGRAVKDARAKGGAEGLRAMVKALKGGETVAFSADVPKVSRVCDAGIILLARFSGAPIVPVAVVTSRHIRFNSWDRACLGLPFGRGAMVFGEATFVPREVTPEEVDALRQRVQDELNRVHDRAYTLVGLEHHHHHH,soluble
13,RKNSQSETFKVGVLQYVSHNALDEIYRGIKAGLKEEGYSGKKIKIDFMNAEGDQSKVQTMSQTLVNHKNDVLVGIATPAAQGLASATKKTPIIMGAVTDPVGAKLVKDLKKPNGNVTGVSDKTPISDQVSLIKKLTPDVKTVGILYSSSEDNSKSQVEEFKKIAEKKGYKVLEYSVPSTNEIATTMNVMLDKTDAVWIPLDNTIASAFPTVVSAAKTAKKPIYPSVDTMVTEGGLASVVVDQYKLGVATGKMAVKVFEGKKVSQLPVDIFDKGTPVVNKKVAKELGIDIPSDILKKAKQQKNQ,not soluble
14,MLIPAQENNVSLTATPSRIGQIMKYGFPGLDHVRSHSDYVLSYDRRNRVPHWVFEHLTAESVAKNDAVDRSKCDFKQDESIHPFFRSQNTDYRRSGYDRGHMAAAGNHRLHQKHCDETFYLSNMAPQVGQGFNRDAWNTLEAHVRRLTKTYSNVYVCTGPLYLPHKEDDGKSYVKYEVIGANTVAVPTHFYKVIVGESADHKLHMESYVMPNQVISNDTPISVFQVPPESVERSAGLLFFDQINRKQLTTINGKKVAAALEHHHHHH,soluble
15,MGSDKIHHHHHHMRYRRFGRTELAMPVFSCGGMRYQQSWKDVDWPEISVESQANLEATLARSLELGINHIETARYYGSSERQLGKALAAYPRSEIILQTKVPPSEDPAEFLETFDRSMSLLQTDYVDLLSIHGVNNAELLDWALRKGGSLDVAERLQAEGRVRHIGFSTHAPLPVILEAIASDRLSYINLHWYYIFQTNQAALEAAQKHDMGVFIISPSDKGGHLYSPPQKLVDLCEPLHPMVFNDLFCLSQPQIHTLSIGAARPSDFDRHLETLPLLDQADQVLPPILERLEAAATAALGQDWLDTWMVGLPTPDTTPGEINIPTIVWLYNLVQAFDMVKYAKARYNLLGNGGHWFPGQRAGQFDPVALSAALDQSPHRDRILQILKEMDAWLGGESVVRLSQSS,not soluble
16,MGSDKIHHHHHHMSTPPVDVCYKVNAPLSSQQFVELLAKTSLGPRRPLDDETAITGMLKHANLLVSAWQGETLVGIARSVTDFHFCCYLSDLAVSDDFQHAGIGKKLIQQTAQQLGKGCKIILLAAPLAVDYYPKLGFEKHNSAWLMAASDLHSEA,not soluble
17,MSLGSIPNDIKVPLVYIEIDNSNALSGTPALAQKVLVIGQQLGTGTASPLTLNRITNSESQMDALFGKGSMLARSLKMFRKSNDYTDVYALGVADLSAGSAAKGEITIAATTAKAGVIALLIAGESVQVGVDEAATAATIATAMIAKINANTNLPVTAALKAATTETVELTAKWKGQTTNDIDIRYNYYDGEQLPQGVTLTVVEMTGGAGTPDMDAVIAAIPNEWYNHIVMPYNDTQSMNKLRDELVNRWGPLKMIEGIAYTAFRGTFAESGAFGVARNDYLFTCMGTNKAPHSPWEWAAAYAGQASYSLGIDPARPLQTLVMTSLLPPAKEIQWDPTERNLLLGDGIATYMVTPSGEVAIEREVSMYRENSYGDPDPSYLDITTPATLGYLRYSLRVMVTNRFPRHKLAGDDVLARLDPGQPVVTPKIMRNAMLELANNDWVPKGLMEDFDGFKETLEVYRDSSDQNRLNCVFKPDIVNQFRIFAALMQFKL,not soluble
18,DKSNKLQNLVAEQLVGCGFNEILNNSLTRAAYYDGLESYPSKNLVMLLNPLSADLNCMRQTLLFGGLESIAHNANRKNADLKFFEFGNCYHFDAEKKNPEKVLAPYSEDYHLGLWVTGKMVSNSWAHADENTSVYELKAYVENIFKRLGLDLHSLVVGNLSDDIYSTALTVNTKGGKRLATFGVVTKKMLKAFDVDNEVYYADLNWK,not soluble
19,MSTPFGLDLGNNNSVLAVARNRGIDIVVNEVSNRSTPSVVGFGPKNRYLGETGKNKQTSNIKNTVANLKRIIGLDYHHPDFEQESKHFTSKLVELDDKKTGAEVRFAGEKHVFSATQLAAMFIDKVKDTVKQDTKANITDVCIAVPPWYTEEQRYNIADAARIAGLNPVRIVNDVTAAGVSYGIFKTDLPEGEEKPRIVAFVDIGHSSYTCSIMAFKKGQLKVLGTACDKHFGGRDFDLAITEHFADEFKTKYKIDIRENPKAYNRILTAAEKLKKVLSANTNAPFSVESVMNDVDVSSQLSREELEELVKPLLERVTEPVTKALAQAKLSAEEVDFVEIIGGTTRIPTLKQSISEAFGKPLSTTLNQDEAIAKGAAFICAIHS,not soluble
20,GSHMDKIKLLKAAFLQYCRKDLGHAQMVVDELFSSHSDLDSDSELDRAVTQISVDLMDDYPASDPRWAESVPEEAPGFSNTSLIILHQLEDKMKAHSFLMDFIHQVGLFGRLGSFPVRGTPMATRLLLCEHAEKLSAAIVLKNHHSRLSDLVNTAILIALNKREYEIPSNLTPADVFFREVSQVDTICECLLEHEEQVLRDAPMDSIEWAEVVINVNNILKDMLQAASHYRQNRNSLYRREESLEKEPEYVPWTATSGPGGIRTVIIRQHEIVLKVAYPQADSNLRNIVTEQLVALIDCFLDGYVSQLKSVDKSSNRERYDNLEMEYLQKRSDLLSPLLSLGQYLWAASLAEKYCDFDILVQMCEQTDNQSRLQRYMTQFADQNFSDFLFRWYLEKGKRGKLLSQPISQHGQLANFLQAHEHLSWLHEINSQELEKAHATLLGLANMETRYFAKKKTLLGLSKLAALASDFSEDMLQEKIEEMAEQERFLLHQETLPEQLLAEKQLNLSAMPVLTAPQLIGLYICEENRRANEYDFKKALDLLEYIDEEEDININDLKLEILCKALQRDNWSSSDGKDDPIEVSKDSIFVKILQKLLKDGIQLSEYLPEVKDLLQADQLGSLKSNPYFEFVLKANYEYYVQGQI,soluble
